# Data: article PMC3314626 (2012)
# T1: ALC1 peptide (Homo sapiens, UniProt O94985)
# T1 chain: KENEMDWDDSALTI
# Molecular target: T1, ALC1 peptide
# Test: ITC
row,Kd [µM],Binder
1,44,KLC1 TPR (protein) GGYEIPARLRTLHNLVIQYASQGRYEVAVPLCKQALEDLEKTSGHDHPDVATMLNILALVYRDQNKYKDAANLLNDALAIREKTLGKDHPAVAATLNNLAVLYGKRGKYKEAEPLCKRALEIREKVLGKDHPDVAKQLSNLALLCQNQGKYEEVEYYYQRALEIYQTKLGPDDPNVAKTKNNLASCYLKQGKFKQAETLYKEILTRAHEREFGSVDDENKPIWMHAEEREECKGKQKDGTSFGEYGGWYKACKVDSPTVTTTLKNLGALYRRQGKFEAAETLEEAAMRSRKQG
2,50,KLC1 TPR (protein) GGYEIPARLRTLHNLVIQYASQGRYEVAVPLCKQALEDLEKTSGHDHPDVATMLNILALVYRDQNKYKDAANLLNDALAIREKTLGKDHPAVAATLNNLAVLYGKRGKYKEAEPLCKRALEIREKVLGKDHPDVAKQLNNLALLCQNQGKYEEVEYYYQRALEIYQTKLGPDDPNVAKTKNNLASCYLKQGKFKQAETLYKEILTRAHEREFGSVDDENKPIWMHAEEREECKGKQKDGTSFGEYGGWYKACKVDSPTVTTTLKNLGALYRRQGKFEAAETLEEAAMRSRKQG
